Conditions in all cases: both partners purified
Assay [1] has as its target T1, HD-PTP(1–361) (human, UniProt Q9H3S7 1-361).
T1 construct: also called HD-PTP Bro1 domain; PTPN23; source: E. coli BL21(DE3) RIL, purified (Ni-NTA, TEV protease, gel filtration); not shown: (His)6, N-terminal, cleaved
T1 sequence (looked up): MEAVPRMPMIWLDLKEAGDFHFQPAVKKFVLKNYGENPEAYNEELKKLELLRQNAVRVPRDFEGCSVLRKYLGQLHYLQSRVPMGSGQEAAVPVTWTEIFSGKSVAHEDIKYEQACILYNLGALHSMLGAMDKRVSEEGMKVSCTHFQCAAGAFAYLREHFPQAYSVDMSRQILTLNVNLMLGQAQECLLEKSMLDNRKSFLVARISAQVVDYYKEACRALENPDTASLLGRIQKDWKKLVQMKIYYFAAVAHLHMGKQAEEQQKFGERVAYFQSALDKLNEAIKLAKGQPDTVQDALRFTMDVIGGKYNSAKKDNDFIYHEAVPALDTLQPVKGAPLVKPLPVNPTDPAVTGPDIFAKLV
Kind of assay: SEC; Superose 6 10/300 GL gel filtration column; mixture of HD-PTP(1–361) and STAM2 fragment; peak fractions analysed by SDS-PAGE and Coomassie staining. In general terms: SEC sorts molecules by how far they enter the pores of the column.

Assay [2] concerns the target T1, HD-PTP(1–361). Put plainly: ITC; 0.5 mM peptide titrated into 50 μM protein; iTC200; 2°C as printed; 20 mM Tris-HCl (pH 7.5), 100 mM NaCl.
The target of assay [3] is T2, HD-PTP(1–361;T145K) (human, UniProt Q9H3S7 1-361, T145K).
T2 construct: source: E. coli BL21(DE3) RIL, purified (Ni-NTA, gel filtration)
T2 sequence (looked up): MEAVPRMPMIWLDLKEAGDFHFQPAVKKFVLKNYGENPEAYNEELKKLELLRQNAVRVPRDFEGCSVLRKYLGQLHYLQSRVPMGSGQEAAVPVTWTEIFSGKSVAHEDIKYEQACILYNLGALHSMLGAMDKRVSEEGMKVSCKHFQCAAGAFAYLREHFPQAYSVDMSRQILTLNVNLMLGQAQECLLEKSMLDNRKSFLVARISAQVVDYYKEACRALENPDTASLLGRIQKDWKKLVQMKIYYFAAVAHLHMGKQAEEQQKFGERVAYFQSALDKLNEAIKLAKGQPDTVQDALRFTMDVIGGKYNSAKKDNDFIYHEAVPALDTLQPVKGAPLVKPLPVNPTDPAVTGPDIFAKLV
Described as above.

Assay [4] addresses T3, HD-PTP(1–361;T145R) (human, UniProt Q9H3S7 1-361, T145R).
T3 construct: source: E. coli BL21(DE3) RIL, purified (Ni-NTA, gel filtration)
T3 sequence (looked up): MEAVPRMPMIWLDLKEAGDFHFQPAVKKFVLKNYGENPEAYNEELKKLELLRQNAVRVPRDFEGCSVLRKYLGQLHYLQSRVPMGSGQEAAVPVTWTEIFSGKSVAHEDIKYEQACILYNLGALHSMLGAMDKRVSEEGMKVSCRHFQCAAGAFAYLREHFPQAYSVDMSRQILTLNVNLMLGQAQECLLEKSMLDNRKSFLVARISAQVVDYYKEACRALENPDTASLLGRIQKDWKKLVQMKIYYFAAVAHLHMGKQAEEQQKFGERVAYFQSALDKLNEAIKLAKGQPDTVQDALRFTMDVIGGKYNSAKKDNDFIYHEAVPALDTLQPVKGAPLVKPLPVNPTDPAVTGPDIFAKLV
The description is as above.

The target in assay [5] is T4, HD-PTP(1–361) with T145A substitution (human, UniProt Q9H3S7 1-361, T145A).
T4 construct: source: E. coli BL21(DE3) RIL, purified (Ni-NTA, gel filtration)
T4 sequence (looked up): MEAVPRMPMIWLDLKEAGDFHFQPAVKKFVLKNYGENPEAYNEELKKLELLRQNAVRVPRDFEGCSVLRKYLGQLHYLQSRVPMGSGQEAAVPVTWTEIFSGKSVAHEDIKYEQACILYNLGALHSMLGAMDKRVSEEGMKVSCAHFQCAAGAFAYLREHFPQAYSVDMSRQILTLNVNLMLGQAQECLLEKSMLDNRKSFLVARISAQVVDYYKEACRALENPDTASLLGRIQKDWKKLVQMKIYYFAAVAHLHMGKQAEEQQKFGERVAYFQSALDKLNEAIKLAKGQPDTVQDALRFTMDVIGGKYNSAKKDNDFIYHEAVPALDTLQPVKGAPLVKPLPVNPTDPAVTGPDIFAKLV
The assay is described as above.

B1: STAM2(311–370) (domain or fragment)
chain: not shown
notes: source: E. coli BL21(DE3) RIL, purified (Ni-NTA, gel filtration)
In the case of B1, in assay [1], the binding result is on record as “binds”.

B2: STAM2(260–370) (domain or fragment)
chain: not shown
notes: STAM2, human, core region, residues 260–370; also called STAM2 core region containing residues 260–370; signal-transducing adaptor molecule 2; source: E. coli BL21(DE3) RIL, purified (Ni-NTA, gel filtration)
For the molecule B2, the binding result in assay [1] was “binds”.

B3: CHMP4B(207–224) (peptide, UniProt Q9H444 207-224, looked up)
peptide: KEEEDDDMKELENWAGSM
notes: CHMP4B, residues 207–224 (18-mer; the polypeptide terminates with Met224); also called CHMP4B peptide of 18-mer (residues 207–224); charged multivesicular body protein 4B; source: synthetic peptide, bought: Peptron (Korea)
As for B3, the Kd in assay [2], in assay [3], in assay [4] and in assay [5] was less than 8 µM each time.

As usually defined, the Kd is a measure of binding affinity in units of concentration.

(Values after article PMC4751086, “Structural Study of the HD-PTP Bro1 Domain in a Complex with the Core Region of STAM2, a Subunit of ESCRT-0” (PLoS ONE, 2016).)
